What all share (assay type): in vivo
Data set [1] can be described thus: Blood glucose after intravenous ranitidine hydrochloride plus oral insulin/SNAC capsules. As to conditions: rats. On the procedure:
Rats were administered ranitidine hydrochloride (10 mg/kg) intravenously one hour prior to oral dosing with capsules comprising 0.3 mg insulin/20 mg SNAC. In vivo delivery of insulin was measured indirectly by assessing blood glucose levels at periodic intervals using a glucometer. Results are shown in FIG. 1A (each line represents one treated animal). For comparison, rats were orally administered capsules comprising 0.3 mg insulin/20 mg SNAC without administration of ranitidine hydrochloride, and blood glucose levels were assessed. Results are shown in FIG. 1B (each line represents one treated animal).

A short description of data set [2]: Blood glucose after capsule-in-capsule insulin/SNAC with ranitidine hydrochloride. As to conditions: dogs. On the procedure: In particular, a size 0 capsule containing insulin and SNAC was placed inside an empty size 00 capsule, which was placed inside a size 000 capsule, optionally containing ranitidine hydrochloride. The capsules were administered to dogs and blood glucose levels were assessed. Results are shown in FIG. 3 (♦—with ranitidine hydrochloride; ▪—without ranitidine hydrochloride).

The nature of data set [3]: Blood glucose after oral capsules of insulin/SNAC/ranitidine hydrochloride. As to conditions: rats. On the procedure:
Rats were orally administered capsules comprising 0.3 mg insulin/10 mg SNAC/10 mg ranitidine hydrochloride, and blood glucose levels were measured at periodic intervals. Results are shown in FIG. 2A (each line represents one treated animal). For comparison, rats were orally administered capsules comprising 0.3 mg insulin/10 mg SNAC (i.e., without ranitidine hydrochloride), and blood glucose levels were assessed. Results are shown in FIG. 2B (each line represents one treated animal).

For insulin, the bioavailability of insulin entry in data set [1] (oral capsules 0.3 mg insulin/20 mg SNAC with i.v. ranitidine hydrochloride vs without, inferred from blood glucose) is recorded as “greater”; in data set [2] (capsule-in-capsule with 150 mg ranitidine hydrochloride vs without, inferred from blood glucose), “greater”; in data set [3] (oral capsules with 10 mg ranitidine hydrochloride vs without, inferred from blood glucose) it was “greater”. Also, the blood glucose levels result in data set [1] (oral capsules 0.3 mg insulin/20 mg SNAC, ranitidine hydrochloride 10 mg/kg intravenously one hour prior, compared with no ranitidine hydrochloride, FIG. 1A vs 1B) is “lower”; in data set [2] (capsule-in-capsule 3.6 mg insulin and 500 mg SNAC inner, 150 mg ranitidine hydrochloride outer, compared with no ranitidine hydrochloride, FIG. 3), “lower”; in data set [3] (oral capsules 0.3 mg insulin/10 mg SNAC/10 mg ranitidine hydrochloride compared with 0.3 mg insulin/10 mg SNAC, FIG. 2A vs 2B), “lower”.

The values are drawn from patent US20170189363A1, “GASTRIC ACID MODULATORS FOR ORAL DELIVERY OF PEPTIDES AND PROTEINS” (NOVEN PHARMACEUTICALS, INC., priority 2015, published 2017).
